Assay [1] has as its target T1, mouse SEMA4D, full length, on CHO-K1 cells (CHO-K1 mSEMA4D) (mouse, UniProt O09126 24-861).
T1 construct: whole, on cells; also called murine SEMA4D recombinant cells
T1 sequence (looked up): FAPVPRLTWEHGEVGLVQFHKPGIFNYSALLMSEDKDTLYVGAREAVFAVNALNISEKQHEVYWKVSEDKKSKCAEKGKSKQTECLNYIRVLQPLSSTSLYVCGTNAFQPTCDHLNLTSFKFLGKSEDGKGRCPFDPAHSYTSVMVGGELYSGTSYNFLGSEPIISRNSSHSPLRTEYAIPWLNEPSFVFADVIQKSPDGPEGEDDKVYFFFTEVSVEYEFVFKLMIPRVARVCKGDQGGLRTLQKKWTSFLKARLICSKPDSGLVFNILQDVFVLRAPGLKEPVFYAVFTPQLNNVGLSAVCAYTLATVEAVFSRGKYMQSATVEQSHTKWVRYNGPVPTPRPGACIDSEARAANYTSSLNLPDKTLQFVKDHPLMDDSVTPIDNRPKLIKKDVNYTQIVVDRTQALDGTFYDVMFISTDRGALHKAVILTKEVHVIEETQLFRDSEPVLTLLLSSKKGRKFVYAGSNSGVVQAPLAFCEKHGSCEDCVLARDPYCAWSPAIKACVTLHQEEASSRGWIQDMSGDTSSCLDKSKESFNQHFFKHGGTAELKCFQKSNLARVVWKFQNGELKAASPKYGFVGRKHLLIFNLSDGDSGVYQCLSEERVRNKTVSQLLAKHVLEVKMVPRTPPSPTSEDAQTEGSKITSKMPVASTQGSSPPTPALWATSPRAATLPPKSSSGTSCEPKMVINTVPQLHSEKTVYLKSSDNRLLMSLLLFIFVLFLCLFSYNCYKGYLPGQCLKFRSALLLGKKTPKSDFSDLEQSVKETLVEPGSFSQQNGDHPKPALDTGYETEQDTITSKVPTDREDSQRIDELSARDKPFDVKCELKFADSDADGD
As to the kind of experiment: FACS, CHO-K1 mSEMA4D cells; Ab 0.107 nM. As to the method: (§1) After the cells were counted, they were diluted with PBS to 2×10⁶ cells per milliliter. After washing, 100 μL of diluted and purified leading antibodies was added to each well and the plate was incubated for 1 hour on ice. […] Cells were washed 2 times by centrifugation with FACS buffer. The cells were suspended with 200 μL of FACS buffer, FACS (FACS Verse, purchased from BD) was used to detect and analyze the results.

Assay [2] addresses T2, hSEMA4D ECD-His (His-tagged human SEMA4D protein extracellular domain, Met22-Arg734) (human, UniProt Q92854 22-734).
T2 construct: Expressed in CHO-S cells, purified on Ni column; also called protein immunogen; immunogen A; not shown: His tag of the pCP vector
T2 sequence: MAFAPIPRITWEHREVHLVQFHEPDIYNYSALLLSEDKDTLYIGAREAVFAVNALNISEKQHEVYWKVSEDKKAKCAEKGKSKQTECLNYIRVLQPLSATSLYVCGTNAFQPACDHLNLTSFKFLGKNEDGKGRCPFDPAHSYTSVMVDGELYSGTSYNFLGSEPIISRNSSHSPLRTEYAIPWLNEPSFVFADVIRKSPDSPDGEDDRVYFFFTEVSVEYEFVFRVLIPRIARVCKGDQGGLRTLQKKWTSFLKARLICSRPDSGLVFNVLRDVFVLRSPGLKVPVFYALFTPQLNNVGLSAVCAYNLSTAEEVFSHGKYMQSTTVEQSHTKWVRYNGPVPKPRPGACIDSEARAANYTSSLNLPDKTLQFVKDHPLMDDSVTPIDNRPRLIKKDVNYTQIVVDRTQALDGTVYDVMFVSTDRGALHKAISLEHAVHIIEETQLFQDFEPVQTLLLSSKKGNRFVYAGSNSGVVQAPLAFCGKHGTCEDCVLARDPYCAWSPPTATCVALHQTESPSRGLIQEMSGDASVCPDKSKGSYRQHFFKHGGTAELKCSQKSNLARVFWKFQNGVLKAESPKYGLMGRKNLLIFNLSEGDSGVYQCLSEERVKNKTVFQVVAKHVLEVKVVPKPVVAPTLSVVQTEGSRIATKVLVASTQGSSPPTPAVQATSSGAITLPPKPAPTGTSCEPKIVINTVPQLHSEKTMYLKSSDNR
As to the kind of experiment: ELISA, coated hSEMA4D ECD-His; Ab 0.0533 nM. The protocol: (§2) First, hSEMA4D ECD-His was diluted with PBS to a final concentration of 1.0 μg/mL, and then was added to a 96-well ELISA plate, 100 μL per well, sealed with plastic film and incubated overnight at 4° C. On the next day, the plate was washed with a plate washing solution, that is, PBS buffer containing 0.05% (v/v) Tween20, for 4 times, and added with blocking solution, that is, PBS buffer containing 0.05% (v/v) Tween20 and 2% (w/w) BSA, blocked at 37° C. for 1 hour. The blocking solution was poured out and the plate was washed 4 times with the plate washing solution. 100 μL of the purified leading antibodies obtained in Examples 1 and 2 was added to each well. After incubation at 37° C. for 1 hour, the plate was washed 4 times with a plate washing solution. 100 μL of horseradish peroxidase (HRP) labeled secondary antibody (purchased from Sigma) was added at a dilution of 1:10000 to each well, and the plate was incubated at 37° C. for 1 hour, and washed 4 times with a plate washing solution. 100 μL TMB substrate was added to each well, and the plate was incubated at room temperature for 5 minutes, and added with 100 μL stop solution (1.0N HCl) to each well. A microplate reader (SpectraMax M5e, purchased from Molecular Device) was used to read the A450 nm value. […] Wherein, the data in the table was the OD450 nm value.
In general terms: An ELISA detects its analyte on a solid surface through an enzyme-linked reagent.

Assay [3] addresses T3, monkey SEMA4D, full length, on CHO-K1 cells (CHO-K1 cSEMA4D) (monkey).
T3 construct: whole, on cells; also called monkey SEMA4D recombinant cells
As to the kind of experiment: FACS, CHO-K1 cSEMA4D cells; Ab 0.00427 nM. As to the method: as §1

In assay [4] the target is T1, mouse SEMA4D, full length, on CHO-K1 …. As to the kind of experiment: FACS, CHO-K1 mSEMA4D cells; Ab 2.67 nM. As to the method:
as §1
On the technique in general: A flow cytometer gives signals particle by particle.

In assay [5] the target is T2, hSEMA4D ECD-His (His-tagged human …). As to the kind of experiment: ELISA, coated hSEMA4D ECD-His; Ab 1.33 nM. The protocol:
as §2

In assay [6] the target is T1, mouse SEMA4D, full length, on CHO-K1 …. As to the kind of experiment: FACS, CHO-K1 mSEMA4D cells; Ab 0.0213 nM. The protocol:
as §1

B1: 37F11F9 (antibody, V domains shown)
VH: EVQLQQSGPVLVKPGASVKMSCKASGYTFTDYYMNWVKQSHGKSLEWIGLINPYSGGSTFNQKFKAKATLTVDKSSSSAYMDLNSLTSEDSAVYYCARVGDGYYGVTHGMDYWGQGTSVTVSS
VL: DIVMTPSQKFMSTTVGDRVSITCKASQNVGTAVAWYQQKPGQSPTILIYSASNRYTGVPDRFTGSGSGTDFTLTISNMKSEDLADYFCQQYYIYPFTFAAGTKLELK
notes: Mouse monoclonal antibody purified from hybridoma supernatant on protein A
B1: the MFI in assay [1] is 29.7; in assay [3], 45.4; in assay [4], 30.6; in assay [6], 30.5. Moreover, the results for the OD450 nm in assay [2] and in assay [5] were 0.365 and 1.39, respectively.

B2: 37C4F7 (antibody, V domains shown)
VH: EFQLQQSGPEVVKPGASVKISCKASGYSFTDYNMNWMKQSKGKSLEWIGVINPNYGTTTYNQNFKGKATLTVDQSSSTAYMQLNSLTSEDSAVYYCARDMYYVYAYYTMDYWGQGTSVTVSS
VL: DVVMTQTPLSLPVSLGDQASISCRSSQSLVHSNGHTYLHWYLQRPGQSPTLLIYKVSNRFSGVPDRFSGSGSGTDFTLKISRVEAEDLGVYFCSQGTHVPWTFGGGTKLEIK
notes: as for B1
In the case of B2, the MFI in assay [1] is 30.1; in assay [3], 38.2; in assay [4], 30; in assay [6], 30.8. For the same molecule, the figures for the OD450 nm in assay [2] and in assay [5] were 0.162 and 0.91, respectively.

B3: 38H2E3 (antibody, V domains shown)
VH: EFQLQQSGPEVVKPGASVKISCKASGYSFTDYNMNWMKQSKGKSLEWIGVISPDYGTTTYNQNFKDKATLTVDQSSSTAYMQLNSLTSEDSAVYYCAKDMYYVYAYYTMDYWGHGTSVTVSS
VL: DVVMTQTPLSLPVSLGDQASISCRSSQSLVHSNGHTYLHWYLQRPGQSPTLLIYKVSNRFSGVPDRVSGSGSGTDFTLKISRVEAEDLGVYFCSQGTHVPRTFGGGTKLEIK
notes: as for B1
For the molecule B3, the MFI in assay [1] was determined as 30.5; in assay [3], 35; in assay [4], 30.7; in assay [6] it was 30.1. The OD450 nm in assay [2] amounted to 0.194; in assay [5] it was 1.1.

B4: 42B7G2 (antibody, V domains shown)
VH: QVQLQQSGAELARPGASVKLSCKASGYTFTDYGISWVKQRTGQGLEWIGEIYLRNDNSYYNEKFKGKATLTADKSSNTAYMELRSLTSEDSAVYFCARWGDHGNNYEDAMDYWGQGTSVTVSS
VL: DIVLTQSPASLAMSLGKRATISCRASESVSIIGSNLIHWYQQKPGQPPKLLIYHASNLETGVPARFSGSGSRTDFTLTIDPVEEDDVAIYYCLQSRKVPYTFGGGTKLEIK
notes: as for B1
Regarding B4, the MFI in assay [1] amounted to 30.4; in assay [3], 92.7; in assay [4] it was 31; in assay [6], 31.6. In addition, the OD450 nm in assay [2] was 0.696; in assay [5], 1.87.

B5: 32C8F10 (antibody, V domains shown)
VH: EVQLQQSGAELVRPGASVKLSCTASGFNIKDEYIHWVKQRPEQGLEWIGWIDPANGHTEYASRFQAKATITADTSSNTAYLQLSSLTSEDTAVYYCTTGDYDGFAYWGQGTLVTVST
VL: QIVLTQSPAIMSASPGEKVTISCSARSSVSYMYWYQQKPGSSPKPWIYRTSNLASGVPARFSGSGSGTSYSLTISSMEAEDAATYYCQHYHTYPYTFGGGTKLEIK
notes: as for B1
For B5, the MFI in assay [1] turned out to be 30.2; in assay [3], 97.6; in assay [4], 30.7; in assay [6], 29.5. For the same molecule, the OD450 nm was 0.551 in assay [2] and 1.87 in assay [5].

B6: 31C11G2 (antibody, V domains shown)
VH: EVQLQQSGAELVRPGASVKLSCTASGFNIKDEYIHWVKQRPEQGLEWIGWIDPANGHTEYASRFQAKATITADTSSNTAYLQLSSLTSEDTAVYYCTTGDYDGFVYWGQGTLVTVST
VL: QIVLTQSPAIMSASPGEKVTIFCSARSSVSYMYWYQQKPGSSPKPWIYRTSNLASGVPARFSGSGSGTSYSLTISSMEAEDAATYYCQHYHTYPYTFGGGTKLEIK
notes: as for B1
With B6, the MFI in assay [1] stood at 30.6; in assay [3], 139; in assay [4] it was 30.5; in assay [6], 30.8. Also, the values for the OD450 nm in assay [2] and in assay [5] were 0.817 and 1.67, respectively.

B7: 31G10C5 (antibody, V domains shown)
VH: EVQLQQSGAELVRPGASVKLSCTASGFNIKDDYIHWVKQRPEQGLEWIGWIDPANGHIEYASNFQAKATITADTSSNTAYLQLSSLTSEDTAVYYCTTGDYDGFTYWGQGTLVTVST
VL: QIVLTQSPAIMSASPGEKVTISCSARSSVSYMYWYQQKPGSSPKPWIYRTSNLASGVPARFSGSGSGTSYSLTISSMEAEDAATYYCQHYHTYPYTFGGGTKLEIK
notes: as for B1
In the case of B7, the MFI in assay [1] was 29.6; in assay [3], 152; in assay [4] it was 30.1; in assay [6], 29.6. For the same molecule, the OD450 nm in assay [2] came out at 0.526; in assay [5], 1.52.
